Assay results from the supplement of paper PMC10567573.

B1: ZNF193 (parent)
chain: QKRYHCKECGKVFSQSAGLIQHQR

Variants of: B1
Assay: protein stability index of a GFP-peptide fusion (GPS, HEK-293T) (PSI 1-6); higher = more stable
Details: c terminus: a fixed tail appended
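Note: lentivirally expressed fusions sorted by FACS into six bins by GFP to DsRed ratio, PSI derived from sequencing read proportions per bin multiplied by bin number.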

Protein stability index, by site and new letter:
K11: L 2.47 | F 1.82 | I 2.32 | Q 3.04 | D 1.88 | G 1.83 | T 2.64 | V 2.18 | H 2.34 | M 3.23 | W 2.32 | A 3.19 | N 1.66 | Y 1.7 | R 2.01 | E 3.1 | S 2.37 | C 2.3 | P 2.12
S14: I 2.64 | G 2.54 | D 3.47 | E 3.77 | F 2.68 | M 2.93 | Y 3.25 | R 3.03 | K 3.23 | H 2.98 | N 2.78 | V 2.53 | T 3.06 | W 2.08 | A 3.47 | L 3.16 | P 2.72 | Q 2.86 | C 2.58
K7: I 2.69 | H 2.94 | Q 3.15 | M 2.6 | V 2.99 | Y 3.1 | T 2.74 | P 3.33 | E 3.52 | R 2.66 | S 3.35 | N 3.23 | L 2.95 | D 3.15 | C 2.65 | A 2.95 | F 2.53 | G 2.92 | W 2.49
L19: P 2.54 | R 2.55 | M 2.35 | W 2.41 | Y 2.42 | A 2.45 | D 2.35 | N 2.56 | S 1.97 | F 2.43 | H 2.58 | I 2.2 | G 2.37 | T 1.94 | Q 2.45 | E 2.31 | C 3.12 | K 2.34 | V 2.12
G18: V 2.09 | T 2.65 | W 1.68 | D 4.32 | F 2.26 | Y 2.31 | N 2.32 | E 4.13 | P 2.29 | I 2.4 | M 2.06 | L 3.01 | C 2.7 | Q 3.55 | A 3.12 | K 2.8 | S 2.22 | R 2.86 | H 2.84
H5: I 3.91 | G 2.23 | Q 3.88 | S 2.94 | P 3.1 | R 3.9 | A 3.25 | V 3.95 | C 3.34 | E 3.62 | Y 3.29 | K 3.92 | M 4.01 | L 3.75 | T 3.23 | N 2.77 | F 3.01 | D 2.37 | W 2.98
Y4: M 2.17 | W 2.86 | R 1.98 | A 1.99 | S 2.11 | Q 2.42 | L 2.4 | T 1.97 | P 2.47 | D 2.48 | C 2.41 | F 2.72 | H 2.47 | V 2.25 | E 2.15 | G 2.14 | K 2.65 | N 2.39 | I 2.4
G10: Y 1.67 | P 2.33 | F 2.03 | E 2.01 | A 1.96 | V 1.46 | N 2.5 | R 2 | Q 2.29 | C 1.83 | L 1.95 | M 2.12 | K 1.98 | S 2.11 | D 1.79 | I 1.51 | H 1.84 | T 1.83 | W 2.02
V12: K 3.2 | D 3.27 | N 2.78 | F 2.67 | T 3.52 | A 2.43 | Y 2.75 | I 2.76 | W 2.82 | C 2.81 | P 2.17 | E 3.23 | R 3.33 | M 2.6 | H 2.82 | S 3.27 | L 2.25 | Q 2.82 | G 2.77
R3: N 2.87 | S 3.12 | V 3.2 | W 3.52 | Q 3.33 | M 3.23 | L 3.58 | T 3.59 | P 2.98 | Y 3.52
E8: C 4.26 | H 3.81 | R 3.12 | Y 2.67 | A 2.75 | W 2.71 | L 2.75 | D 2.93 | T 2.94 | M 2.6 | G 2.66 | I 2.98 | V 2.68 | S 2.59 | F 2.56 | Q 2.91 | K 3.5 | N 2.99 | P 2
C6: N 2.74 | A 2.63 | T 2.83 | W 1.96 | L 2.31 | K 2.69 | R 2.6 | I 2.12 | S 2.88 | D 3.05 | E 3.74 | P 2.18 | F 2.08 | M 2.75 | V 2.8 | Q 2.28 | Y 1.73 | H 2.24 | G 2.62
Q15: E 3.85 | V 2.16 | D 4.51 | C 3.93 | A 2.83 | R 3.08 | P 1.58 | L 1.99 | K 3.45 | H 2.91 | I 1.92 | F 2.28 | N 4.24 | M 2.06 | Y 2.73 | T 4.01 | S 4.11 | G 2.8 | W 2.06
C9: L 2.52 | A 3.45 | H 3.13 | T 3.27 | R 3.38 | Q 3.19 | M 2.63 | S 3.11 | F 2.17 | K 3.64 | G 3.2 | V 3.07 | Y 2.7 | P 3.04 | I 2.83 | N 3.17 | E 3.64 | W 2.58 | D 3.97
F13: P 2.39 | Q 2.29 | Y 1.99 | H 3.12 | G 1.87 | N 1.67 | C 2.15 | K 2.25 | D 1.72 | I 2.42 | L 2.5 | V 2.05 | T 1.91 | E 2.42 | M 1.82 | R 2.17 | S 2.12 | A 1.81 | W 2.03
I20: N 2.5 | Q 2.83 | R 3.5 | K 3.26 | H 3.31 | E 2.91 | S 2.69 | C 3.95 | D 3.02 | T 3.09 | G 2.38 | P 2.27 | A 3.06 | M 2.86 | F 2.45 | V 3.22 | L 3.08 | Y 2.98 | W 2.4
A17: M 1.82 | S 3.02 | F 2.27 | P 2.02 | Q 2.76 | L 2.22 | D 3.42 | N 3.05 | I 2.28 | C 2.45 | V 2.48 | Y 1.94 | G 2.54 | K 3.09 | W 2.86 | T 2.46 | R 3.21 | E 3.51 | H 2.66
S16: R 3.97 | Q 3.88 | A 3.71 | E 4.39 | N 3.11 | K 3.53 | D 2.47 | C 2.9 | V 2.62 | T 2.27 | P 3.44 | F 2.86 | M 3.72 | L 3.59 | G 2.7 | H 3.77 | Y 3.8 | I 2.98 | W 2.99
Q21: A 3.2
